From publication PMC12423313, “Protein-based tools for the detection and characterisation of Oropouche virus infection” (EMBO Molecular Medicine, 2025)

B1: biotinylated nanobody SpC7 (AviTag-His9) (VHH)
VHH: QVQLVESGGGLVQAGGSLRLSCAASGRTFSPNAMGWFRQAPGKEREFVSAISWSGGSTTYADSVKGRFTISRDNAKNTVSLQMNSLKPEDTAVYYCAADLEGMVVADRIWGQGTQVTVSS
notes: VHH SpC7 from an immunised llama; also called bSpC7; (biotinylated)bSpC7; not shown: AviTag, C-terminal, kept
B2: biotinylated nanobody NpE3 (AviTag-His9) (VHH)
VHH: QVQLVESGGGLVRPGGSLRLSCAASGFTFSNAYMTWIRQAPGKDLEWVSSIYYGDMTSYATSVKGRFTISRDNAKNTLYLQMNNLKPEDSAIYYCTKGDERGQGTQVTVSS
notes: VHH NpE3 from an immunised llama; also called bNpE3; OROV Np Nb E3 BAP H9; not shown: AviTag, C-terminal, kept
B3: OROV Gc spike region (residues 482-894 of the M polyprotein), recombinant, strain BeAn19991 (domain or fragment, Oropouche virus strain BeAn19991)
chain: DEDCLSKDIKITYQELHNCIGPKIMGDTCVSKSELYSDLFSKNLVTEYDKKYFEPDTVNDQFNKIEFAQDAHRMILLERILYKTECEMLSLKKNSGPYNVAWRTYFKNHNIDLCSRHNYKMICQCINTHSMCKNTDIDYNKEIETYYKSNAAAYRADLNTIMDTLKTAFRGLTKVLIENYIEKDDSDALKALFSNITDSVQDNYQMIGILKFASKLLDINLGRSTRSAHHSIMTNEIPKSNPFTDYSYSNLNIKECMSPESLKCFKKRDSTPHTNHLLCKIDNKYKAFDWPEIETIQKGQKLCLGDSHCNLEFTAITADKIMSLTNCYKESFTAQPADMQAGIKKCSADEIGECTTLEDKTWPIIFCGGKYYYSDSKEHAKDGSINNYCLTNKCSEQRFPIHENWFKKCNWDK
notes: Gc spike region (head and stalk domains) of the M polyprotein of Oropouche virus strain BeAn19991, GenBank AJE24679.1, residues 482-894; also called Gc spike domain
B4: AlexaFluor568-conjugated OROV NpE3 nanobody (Cys-His8) (VHH)
VHH: B2 VHH
notes: as the VHH of m13; also called OROV Np Nb E3 CH8
B5: AlexaFluor568-conjugated OROV SpE8 nanobody (Cys-His8) (VHH)
VHH: QVQLVESGGGFVRAGDSLRLSCAASGRAFSTYAMGWFRQAPGKEREFVAGITLGSRITQYADSVKGRFTISRDNARQTMYLQMNNLQPEDTADYYCAARGQGSPPLRNRWSADDYNYWGQGLQVTVSS
notes: as the VHH of m21; also called OROV Sp Nb E8 CH8

How the values were obtained:
[1] = target: T1, OROV glycoprotein Gc of strain BeAn19991, native, in virus stocks and infected cells (Oropouche virus strain BeAn19991, UniProt A0A0B5CLT0); assay: ELISA; sandwich ELISA with nanobodies, […]; conditions: one partner purified
T1 construct: On virus particles Gc stands with Gn; also called Gc spike; OROV BeAn19991

[2] = target: T2, OROV glycoprotein Gc of strain TRVL, native, in virus stock (Oropouche virus strain TRVL (stand-in: …, UniProt A0A0B5CLT0, strain)); assay: ELISA; sandwich ELISA with nanobodies, […]; conditions: one partner purified
T2 construct: also called Gc spike; OROV TRVL

[3] = target: B3; assay: ELISA; […], biotinylated nanobody 2 µg/mL, […], room temperature; conditions: both partners purified
[4] = target: T3, OROV nucleoprotein (N) of strain BeAn19991, native, in virus stocks and infected cells (Oropouche virus strain BeAn19991); assay: ELISA; sandwich ELISA with nanobodies, […]; conditions: one partner purified
T3 construct: N protein of Oropouche virus strain BeAn19991, GenBank AJE24680.1, as made by the virus; also called OROV BeAn19991
T3 chain: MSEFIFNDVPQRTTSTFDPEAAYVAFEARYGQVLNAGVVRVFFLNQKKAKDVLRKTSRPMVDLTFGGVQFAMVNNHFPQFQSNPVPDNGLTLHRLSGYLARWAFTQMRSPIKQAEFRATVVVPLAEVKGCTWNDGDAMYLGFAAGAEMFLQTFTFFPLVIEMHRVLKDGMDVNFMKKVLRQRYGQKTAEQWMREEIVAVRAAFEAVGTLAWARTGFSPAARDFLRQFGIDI

[5] = target: T4, OROV nucleoprotein (N) of strain TRVL, native, in virus stock (Oropouche virus strain TRVL (stand-in: …, strain)); assay: ELISA; sandwich ELISA with nanobodies, […]; conditions: one partner purified
T4 construct: N protein of Oropouche virus strain TRVL (Anderson et al, 1961); also called OROV TRVL
T4 chain: T3 chain

[6] = target: T5, OROV nucleoprotein (N), recombinant, strain BeAn19991 (Oropouche virus strain BeAn19991); assay: ELISA; conditions: both partners purified
T5 chain: T3 chain

[7] = target: T6, nanobody-Fc fusion FcSpB6 (llama); assay: ELISA; conditions: both partners purified
T6 construct: as the VHH of m18; also called FcSpB6-HRP; OROV FcSpB6; not shown: Fc (human IgG1 hinge and Fc domains 2 and 3), C-terminal, kept

[8] = target: T7, biotinylated nanobody-Fc fusion bFcSpC7 (C-terminal AviTag) (llama); assay: ELISA; conditions: both partners purified
T7 construct: as the VHH of m20; also called OROV FcSpC7 BAP; not shown: Fc (human IgG1 hinge and Fc domains 2 and 3), C-terminal, kept; AviTag, C-terminal, kept

[9] = target: T8, OROV nucleoprotein (N) of the 2023-4 epidemic isolate AM0088, native (Oropouche virus isolate AM0088, strain); assay: immunostaining of cells or tissue; conditions: one partner purified
T8 construct: also called OROV AM0088 N
T8 chain: T3 chain

[10] = target: T3, OROV nucleoprotein (N) of strain …; assay: immunostaining of cells or tissue; conditions: one partner purified
[11] = target: T1, OROV glycoprotein Gc of strain …; assay: immunostaining of cells or tissue; conditions: one partner purified
[12] = target: T9, OROV glycoprotein Gc of the 2023-4 epidemic isolate AM0088, native (Oropouche virus isolate AM0088 …, UniProt A0A0B5CLT0, strain); assay: immunostaining of cells or tissue; conditions: one partner purified
T9 construct: also called Gc spike; OROV AM0088

Question: Does B1 bind [1]?
Answer: binds

Question: Does B1 bind [2]?
Answer: binds

Question: Does B1 bind [3]?
Answer: binds

Question: Does B2 bind [4]?
Answer: binds

Question: Does B2 bind [5]?
Answer: binds

Question: Does B2 bind [6]?
Answer: binds

Question: Which results are given for B3?
Answer: binding result [7]: binds; binding result [8]: binds

Question: Does B4 bind [9]?
Answer: binds

Question: Does B4 bind [10]?
Answer: binds

Question: Does B5 bind [11]?
Answer: binds

Question: Does B5 bind [12]?
Answer: binds
